From the supplement of paper PMC5998384 come the findings set out here.

In series [1] the test system is HeLa Kyoto. Briefly: melting temperature (median over replicates), in situ; higher = more thermally stable.
Series [2] relates to HeLa Kyoto. In words: thermal stability score vs G1/S (z-score of summed log2 fold changes over temperatures); higher = more thermally stable than in G1/S.
The test system of series [3] is HeLa Kyoto. In words: solubility in G1/S (NP-40 vs SDS abundance) (log2 ratio); higher = more soluble. The settings on record: cell cycle stage: G1/S.
Series [4] deals with HeLa Kyoto. In words: solubility change mitosis vs G1/S (difference of NP-40 vs SDS log2 ratios) (log2 ratio difference); higher = more soluble in mitosis.
Where [5] appears, read: cell cycle stage: early G1 (4.5 h after nocodazole release).
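Wherever melting temperature (median over replicates), in situ is given: HeLa Kyoto cells synchronized by double thymidine or nocodazole block, proteins quantified by TMT10plex mass spectrometry, three independent biological replicates.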
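Wherever solubility change mitosis vs G1/S (difference of NP-40 vs SDS log2 ratios) is given: synchronized HeLa Kyoto cells (double thymidine block for G1/S, nocodazole release for mitosis), protein amounts in NP-40 versus SDS lysates quantified by mass spectrometry, three biological replicates.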
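Wherever solubility in G1/S (NP-40 vs SDS abundance) is given: HeLa Kyoto cells arrested at G1/S by double thymidine block, proteins quantified by TMT10plex mass spectrometry in mild NP-40 versus SDS extracts, three biological replicates.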
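Wherever thermal stability score vs G1/S (z-score of summed log2 fold changes over temperatures) is given: synchronized HeLa Kyoto cells, proteins quantified by TMT10plex mass spectrometry, three biological replicates, mitosis taken 0.5 h after nocodazole release, G1/S directly after double thymidine block.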

As to “MWALRAAVRPGLRLSRVGRGRSAPRAAAPSCPARALAAVGRRSPGNLEGPWGGGRGLRADGGRSRTGDDEEEPEDADENAEEELLRGEPLLPAGTQRVCLVHPDVKWGPGKSQMTRAEWQVAEATALVHTLDGWSVVQTMVVSTKTPDRKLIFGKGNFEHLTEKIRGSPDITCVFLNVERMAAPTKKELEAAWGVEVFDRFTVVLHIFRCNARTKEARLQVALAEMPLHRSNLKRDVAHLYRGVGSRYIMGSGESFMQLQQRLLREKEAKIRKALDRLRKKRHLLRRQRTRREFPVISVVGYTNCGKTTLIKALTGDAAIQPRDQLFATLDVTAHAGTLPSRMTVLYVDTIGFLSQLPHGLIESFSATLEDVAHSDLILHVRDVSHPEAELQKCSVLSTLRGLQLPAPLLDSMVEVHNKVDLVPGYSPTEPNVVPVSALRGHGLQELKAELDAAVLKATGRQILTLRVRLAGAQLSWLYKEATVQEVDVIPEDGAADVRVIISNSAYGKFRKLFPG [GTPBP6]”, the melting temperature in the series with HeLa Kyoto [1] (cell cycle stage: G1/S) is 51.8 °C; in the series on HeLa Kyoto [1] (cell cycle stage: mitosis) it was 51.4 °C. In addition, the thermal stability score was -0.762 in the series with HeLa Kyoto [2] (setting [5]) and -0.462 with HeLa Kyoto [2] (cell cycle stage: mitosis). Besides, the “solubility in G1/S (log2)” value with HeLa Kyoto [3] was -0.232. For the same sequence, the “solubility change mitosis (log2)” value in the series with HeLa Kyoto [4] stood at 0.00881.
Take “MWFFARDPVRDFPFELIPEPPEGGLPGPWALHRGRKKATGSPVSIFVYDVKPGAEEQTQVAKAAFKRFKTLRHPNILAYIDGLETEKCLHVVTEAVTPLGIYLKARVEAGGLKELEISWGLHQIVKALSFLVNDCSLIHNNVCMAAVFVDRAGEWKLGGLDYMYSAQGNGGGPPRKGIPELEQYDPPELADSSGRVVREKWSADMWRLGCLIWEVFNGPLPRAAALRNPGKIPKTLVPHYCELVGANPKVRPNPARFLQNCRAPGGFMSNRFVETNLFLEEIQIKEPAEKQKFFQELSKSLDAFPEDFCRHKVLPQLLTAFEFGNAGAVVLTPLFKVGKFLSAEEYQQKIIPVVVKMFSSTDRAMRIRLLQQMEQFIQYLDEPTVNTQIFPHVVHGFLDTNPAIREQTVKSMLLLAPKLNEANLNVELMKHFARLQAKDEQGPIRCNTTVCLGKIGSYLSASTRHRVLTSAFSRATRDPFAPSRVAGVLGFAATHNLYSMNDCAQKILPVLCGLTVDPEKSVRDQAFKAIRSFLSKLESVSEDPTQLEEVEKDVHAASSPGMGGAAASWAGWAVTGVSSLTSKLIRSHPTTAPTETNIPQRPTPEGVPAPAPTPVPATPTTSGHWETQEEDKDTAEDSSTADRWDDEDWGSLEQEAESVLAQQDDWSTGGQVSRASQVSNSDHKSSKSPESDWSSWEAEGSWEQGWQEPSSQEPPPDGTRLASEYNWGGPESSDKGDPFATLSARPSTQPRPDSWGEDNWEGLETDSRQVKAELARKKREERRREMEAKRAERKVAKGPMKLGARKLD [SCYL1]”: the values for the melting temperature in the series on HeLa Kyoto [1] (cell cycle stage: G1/S) and in the series on HeLa Kyoto [1] (cell cycle stage: mitosis) were 50.9 °C and 50.3 °C, respectively. The thermal stability score in the series with HeLa Kyoto [2] (setting [5]) came out at 0.0922; in the series with HeLa Kyoto [2] (cell cycle stage: mitosis), 0.113. The “solubility in G1/S (log2)” value in the series with HeLa Kyoto [3] is -0.162. Further, in the series with HeLa Kyoto [4], the “solubility change mitosis (log2)” value is -0.184.
With “MWGDSRPANRTGPFRGSQEERFAPGWNRDYPPPPLKSHAQERHSGNFPGRDSLPFDFQGHSGPPFANVEEHSFSYGARDGPHGDYRGGEGPGHDFRGGDFSSSDFQSRDSSQLDFRGRDIHSGDFRDREGPPMDYRGGDGTSMDYRGREAPHMNYRDRDAHAVDFRGRDAPPSDFRGRGTYDLDFRGRDGSHADFRGRDLSDLDFRAREQSRSDFRNRDVSDLDFRDKDGTQVDFRGRGSGTTDLDFRDRDTPHSDFRGRHRSRTDQDFRGREMGSCMEFKDREMPPVDPNILDYIQPSTQDREHSGMNVNRREESTHDHTIERPAFGIQKGEFEHSETREGETQGVAFEHESPADFQNSQSPVQDQDKSQLSGREEQSSDAGLFKEEGGLDFLGRQDTDYRSMEYRDVDHRLPGSQMFGYGQSKSFPEGKTARDAQRDLQDQDYRTGPSEEKPSRLIRLSGVPEDATKEEILNAFRTPDGMPVKNLQLKEYNTGYDYGYVCVEFSLLEDAIGCMEANQGTLMIQDKEVTLEYVSSLDFWYCKRCKANIGGHRSSCSFCKNPREVTEAKQELITYPQPQKTSIPAPLEKQPNQPLRPADKEPEPRKREEGQESRLGHQKREAERYLPPSRREGPTFRRDRERESWSGETRQDGESKTIMLKRIYRSTPPEVIVEVLEPYVRLTTANVRIIKNRTGPMGHTYGFIDLDSHAEALRVVKILQNLDPPFSIDGKMVAVNLATGKRRNDSGDHSDHMHYYQGKKYFRDRRGGGRNSDWSSDTNRQGQQSSSDCYIYDSATGYYYDPLAGTYYDPNTQQEVYVPQDPGLPEEEEIKEKKPTSQGKSSSKKEMSKRDGKEKKDRGVTRFQENASEGKAPAEDVFKKPLPPTVKKEESPPPPKVVNPLIGLLGEYGGDSDYEEEEEEEQTPPPQPRTAQPQKREEQTKKENEEDKLTDWNKLACLLCRRQFPNKEVLIKHQQLSDLHKQNLEIHRKIKQSEQELAYLERREREGKFKGRGNDRREKLQSFDSPERKRIKYSRETDSDRKLVDKEDIDTSSKGGCVQQATGWRKGTGLGYGHPGLASSEEAEGRMRGPSVGASGRTSKRQSNETYRDAVRRVMFARYKELD [RBM6]”, the values for the melting temperature with HeLa Kyoto [1] (cell cycle stage: G1/S) and in the series with HeLa Kyoto [1] (cell cycle stage: mitosis) were 48.2 °C and 50 °C, respectively. For the same sequence, the results for the thermal stability score with HeLa Kyoto [2] (setting [5]) and with HeLa Kyoto [2] (cell cycle stage: mitosis) were 1.19 and 1.84, respectively. Besides, the “solubility in G1/S (log2)” value in the series with HeLa Kyoto [3] is -0.757. Moreover, the “solubility change mitosis (log2)” value in the series on HeLa Kyoto [4] was 0.361.
For “MWIQVRTMDGRQTHTVDSLSRLTKVEELRRKIQELFHVEPGLQRLFYRGKQMEDGHTLFDYEVRLNDTIQLLVRQSLVLPHSTKERDSELSDTDSGCCLGQSESDKSSTHGEAAAETDSRPADEDMWDETELGLYKVNEYVDARDTNMGAWFEAQVVRVTRKAPSRDEPCSSTSRPALEEDVIYHVKYDDYPENGVVQMNSRDVRARARTIIKWQDLEVGQVVMLNYNPDNPKERGFWYDAEISRKRETRTARELYANVVLGDDSLNDCRIIFVDEVFKIERPGEGSPMVDNPMRRKSGPSCKHCKDDVNRLCRVCACHLCGGRQDPDKQLMCDECDMAFHIYCLDPPLSSVPSEDEWYCPECRNDASEVVLAGERLRESKKKAKMASATSSSQRDWGKGMACVGRTKECTIVPSNHYGPIPGIPVGTMWRFRVQVSESGVHRPHVAGIHGRSNDGAYSLVLAGGYEDDVDHGNFFTYTGSGGRDLSGNKRTAEQSCDQKLTNTNRALALNCFAPINDQEGAEAKDWRSGKPVRVVRNVKGGKNSKYAPAEGNRYDGIYKVVKYWPEKGKSGFLVWRYLLRRDDDEPGPWTKEGKDRIKKLGLTMQYPEGYLEALANREREKENSKREEEEQQEGGFASPRTGKGKWKRKSAGGGPSRAGSPRRTSKKTKVEPYSLTAQQSSLIREDKSNAKLWNEVLASLKDRPASGSPFQLFLSKVEETFQCICCQELVFRPITTVCQHNVCKDCLDRSFRAQVFSCPACRYDLGRSYAMQVNQPLQTVLNQLFPGYGNGR [UHRF1]”, the results for the melting temperature in the series on HeLa Kyoto [1] (cell cycle stage: G1/S) and in the series with HeLa Kyoto [1] (cell cycle stage: mitosis) were 45.8 °C and 48.3 °C, respectively. Further, the thermal stability score in the series with HeLa Kyoto [2] (setting [5]) was 4.54; in the series on HeLa Kyoto [2] (cell cycle stage: mitosis), 8.25. In addition, the “solubility in G1/S (log2)” value with HeLa Kyoto [3] is -0.563. Moreover, the “solubility change mitosis (log2)” value in the series with HeLa Kyoto [4] came to 0.3.
On to “MWLEILLTSVLGFAIYWFISRDKEETLPLEDGWWGPGTRSAAREDDSIRPFKVETSDEEIHDLHQRIDKFRFTPPLEDSCFHYGFNSNYLKKVISYWRNEFDWKKQVEILNRYPHFKTKIEGLDIHFIHVKPPQLPAGHTPKPLLMVHGWPGSFYEFYKIIPLLTDPKNHGLSDEHVFEVICPSIPGYGFSEASSKKGFNSVATARIFYKLMLRLGFQEFYIQGGDWGSLICTNMAQLVPSHVKGLHLNMALVLSNFSTLTLLLGQRFGRFLGLTERDVELLYPVKEKVFYSLMRESGYMHIQCTKPDTVGSALNDSPVGLAAYILEKFSTWTNTEFRYLEDGGLERKFSLDDLLTNVMLYWTTGTIISSQRFYKENLGQGWMTQKHERMKVYVPTGFSAFPFELLHTPEKWVRFKYPKLISYSYMVRGGHFAAFEEPELLAQDIRKFLSVLERQ [EPHX1]”, for which the melting temperature in the series with HeLa Kyoto [1] (cell cycle stage: G1/S) came to 57.9 °C; in the series on HeLa Kyoto [1] (cell cycle stage: mitosis), 58.1 °C. The thermal stability score with HeLa Kyoto [2] (setting [5]) is -3.88; in the series on HeLa Kyoto [2] (cell cycle stage: mitosis) it was -2.14. Besides, in the series on HeLa Kyoto [3], the “solubility in G1/S (log2)” value was -0.336. Besides, in the series on HeLa Kyoto [4], the “solubility change mitosis (log2)” value is -0.197.
Consider “MWLKVGGLLRGTGGQLGQTVGWPCGALGPGPHRWGPCGGSWAQKFYQDGPGRGLGEEDIRRAREARPRKTPRPQLSDRSRERKVPASRISRLANFGGLAVGLGLGVLAEMAKKSMPGGRLQSEGGSGLDSSPFLSEANAERIVQTLCTVRGAALKVGQMLSIQDNSFISPQLQHIFERVRQSADFMPRWQMLRVLEEELGRDWQAKVASLEEVPFAAASIGQVHQGLLRDGTEVAVKIQYPGIAQSIQSDVQNLLAVLKMSAALPAGLFAEQSLQALQQELAWECDYRREAACAQNFRQLLANDPFFRVPAVVKELCTTRVLGMELAGGVPLDQCQGLSQDLRNQICFQLLTLCLRELFEFRFMQTDPNWANFLYDASSHQVTLLDFGASREFGTEFTDHYIEVVKAAADGDRDCVLQKSRDLKFLTGFETKAFSDAHVEAVMILGEPFATQGPYDFGSGETARRIQDLIPVLLRHRLCPPPEETYALHRKLAGAFLACAHLRAHIACRDLFQDTYHRYWASRQPDAATAGSLPTKGDSWVDPS [ADCK4]”, for which the melting temperature was found to be 50.7 °C with HeLa Kyoto [1] (cell cycle stage: G1/S) and 49.8 °C in the series with HeLa Kyoto [1] (cell cycle stage: mitosis). Also, the figures for the thermal stability score with HeLa Kyoto [2] (setting [5]) and in the series with HeLa Kyoto [2] (cell cycle stage: mitosis) were -0.115 and 0.518, respectively. Besides, the “solubility in G1/S (log2)” value in the series with HeLa Kyoto [3] was 0.00454. Besides, the “solubility change mitosis (log2)” value in the series on HeLa Kyoto [4] was 0.0635.
